Measurements: paper doi:10.1101/2025.01.28.635075
“And” between values parts separate entries of the source, which are not always exact repeats. Identical values can stand only once.

Key:
[1] = molecular target: MMOH protomer (αβγ) from Methylosinus sporium 5 (Methylosinus sporium 5); experiment: cryo-EM structure
[2] = molecular target: soluble methane monooxygenase hydroxylase (MMOH), α2β2γ2, from Methylosinus sporium 5 (Methylosinus sporium 5); experiment: cryo-EM structure

Row | stoichiometry N [1] | stoichiometry N [2] | Substance
1 | 2 |  | MMOH protomer (αβγ) from Methylosinus sporium 5 (from UniProt A0ACH3GMT4 1-520) (complex)
2 |  | 1 and 2 | regulatory component of soluble methane monooxygenase (MMOB) from Methylosinus sporium 5 (natural protein)
